Test results as given in paper PMC4519180 (2015).
No end group written: not given here. *: point of attachment. 6FAM = O=C1OC2(c3ccc(O)cc3Oc3cc(O)ccc32)c2cc(C(=O)*)ccc21

These binders were tested against recombinant purified ABL SH3 domain alone (human).
Sequence of recombinant purified ABL SH3 domain alone (human) (chain, as listed by the source): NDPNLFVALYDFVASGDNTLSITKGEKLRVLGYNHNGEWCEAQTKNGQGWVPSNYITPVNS

Q: Which Kd does the source give for 6FAM-APTMPPPLPP [3BP-1 probe peptide, labeled with 6-carboxyfluorescein] here?
A: Its Kd is 34000 nM.

Q: APSYSPPPPP [unlabeled p41 peptide] was tested. Which Kd did it give?
A: Its Kd is 1500 nM.

Q: For 6FAM-APTYPPPLPP [p40 probe peptide, labeled with 6-carboxyfluorescein], which Kd is on record?
A: Its Kd is 400 nM.
